Measured values: PMC10627809, “Histones with an unconventional DNA-binding mode in vitro are major chromatin constituents in the bacterium Bdellovibrio bacteriovorus” (Nature Microbiology, 2023)

T1: Bd0055 (UniProt Q6MRM1 1-64)
T1 sequence: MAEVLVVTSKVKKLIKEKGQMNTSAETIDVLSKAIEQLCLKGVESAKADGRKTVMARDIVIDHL


Key:
[1] = target: the molecule itself; experiment: crystal structure; apo Bd0055; hanging drop, 3.2 M (NH4)2SO4, 100 mM BICINE pH 9; 1.8 Å
Bd0055 = target: T1, Bd0055; experiment: X-ray crystallography; 1 dimer per 2.5 bp; straight DNA; asymmetric unit has one dimer with 2 nt + 3 nt; FP/FRET: 10 nM DNA, 10 mM NaCl, 1 mM EDTA, 50 mM HEPES pH 6, r.t.; EMSA: 1 µM DNA, 10 mM NaCl, 1 mM EDTA, 50 mM HEPES pH 7.5, r.t., 10% native PAGE 0.2x TBE; settings: protein: recombinant; chain copies: 2; blunt

Binder | binding result [1] | binding result (Bd0055)
Bd0055, B. bacteriovorus histone (natural protein, Bdellovibrio bacteriovorus HD100, UniProt Q6MRM1 1-64, looked up, Bd0055, singlet histone-fold protein of Bdellovibrio bacteriovorus HD100; open reading frame codon optimized for E. coli, cloned into a pET vector; No tag is named; purified by cation exchange, heparin and size exclusion; Histone-fold homodimer in both crystal structures; also called wild type Bd0055; bacterial histone Bd0055; source: E. coli, purified (SP HP, Heparin HP, S75)) MAEVLVVTSKVKKLIKEKGQMNTSAETIDVLSKAIEQLCLKGVESAKADGRKTVMARDIVIDHL | binds | –
35 bp crystallization DNA (dsDNA) DNA 1: TCTTGCACTAAGAGCTACTGGAGTGCGTCAGATGT DNA 2: ACATCTGACGCACTCCAGTAGCTCTTAGTGCAAGA | – | binds
